# Assay results: the nanobody polyreactivity screen of Harvey et al. (2022)
# Assay: yeast display, Sf9 membrane polyspecificity reagent, FACS + sequencing; frameworks hold sequencing errors
# Method in brief: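 In a synthetic yeast display library (Saccharomyces cerevisiae BJ5465), nanobody expression was induced with galactose for 36–48 hours. FACS gates were set low and high (top ~1%) using anti-HA fluorescence for expression and streptavidin fluorescence for binding of the Sf9 membrane reagent. Each polyreactivity label is drawn from the gate of origin.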
row,Sequence,polyreactivity (PSR sort gate)
1,QVQLVESGGGLVQAGGSLRLSCAASGSIFVSEYVMGWYRQAPGKERELVARIRWSSGSTYYADSVKGRFTISRDNAKNTVYLQMNSLKPEDTAVYYCNKDYYYVIGWTYHRSYHYDYWGQGTQVTVSS,low polyreactivity
2,QVQLVESGGGLVQAGGSLRLSCAASGFTFGSYAMGWYRQAPGKERELVAAIRQSATRTYYADSVKGRFTISRDNAKNTVYLQMNSLKPEDTAVYYCNVARPGKYFYIYDYWGQGTQVTVSS,low polyreactivity
3,QVQLVQTGGGLVQAGGSLRLSCAASGRTFRYYAMGLYRQAPGKEREFVATITYSSGSTYYADSVKGRFTISRDNAKNTVYLQMNSLKPEDTAVYYCNAEGYCNSYGYWGQGTQVTVSS,low polyreactivity
4,QVQLVESGGGLVQAGGSLRLSCAASGSTLAYNAMGWYRQAPGKERELVATINFSGGSTYYADSVKGRFTISRDNSKNTVYLQMNSLKPEDTAVYYCNARGYWQYSPTKFDYWGQGTQVTVSS,low polyreactivity
5,QVQLVESGGGLVQAGGSLRLSCAASGITFYGNAMGWYRQAPGKERELVATISRSDGRTYYADSVKGRFTISRDNANNTVYLQMNSLKPEDTAVYYCAAYTTRPYWGQGTQVTVSS,high polyreactivity
6,QVQLVESGGGLVQAGGSLRLSCAASGGTFSVYVMGWYRQAPGKERELVAAIRDRGVSTYYADSVKGRFTISRDNAKNTVYLQMNSEKPEDTAVSYCAAKYSYSRKPGAYYYWGQGTQVTVSS,high polyreactivity
7,QVQLVESGGGLVQAGGSLRLSCAASGLIFNIYAMGWYRQAPGKARELVATIRYSGGSTNYADSVKGRFTISRDNAKNTVYLQMNSLKPEVTAVYYCNAGYYPTGYDYWGQGTQVTVSW,low polyreactivity
8,QVQLVESGGGLVQAGGSLRLSCAASGIIFAAYVMGWYRQAPGKERELVAAISKSGGRTYYADSVKGRFTISRDNAKNTVYLQMNSLKREDTAVYYCAASYTYYSIGLGTDVRYGYWGEGTQVTVSS,high polyreactivity
9,QVQLVESGGGLVQAGGSLRLICAASGFTFYENAMGWYRQAPGKERELVATISYSGGTTYADSVKGRFTISRDNAKNTVFLQMISLKPEDTAVYYCAADKDGYTYEFDYWGQGTQVTVSS,low polyreactivity
10,QVQLVESGGGLVQAGGSLRLSCAASGSIFKYYVMGWYRQAPGKEREFVAVISWSGGTTYYADSVKGRFTISRDNAKNTVYLQMNSLKPEDTAVYDCNKDYIYVGVPRYRSINHDYWGQGTQVTVSS,low polyreactivity
11,QVQLVESGGGLVQAGGSLRLSCAASGSTFPYYDMGWYRQAPGKERELVAAISWSGDSTYYADSVKGRFTISRDNAKNTVYLQMNRLKPEDTAVYYCAAYSDYWSYLSTDDYWGQGTQVTVSS,low polyreactivity
12,QVQLQESGGGLVKAGGTPRLSCAASYNIFPDSVMCWYRQAPGTERELVATIGFVATTNYADSVKGRFTISRDNAKNTLYLQMNSLNPEDTAVYYCAAVPLNYEYFCYWGEGTQVTVSS,low polyreactivity
13,QVQLVESGGGLVQAGGSLRISCAASGITFPWYAMGWYRQAPGKERELVAAINRAGNTNYADSVKGRFTISRDNAKNTVYLQMNSLKPEDTSVYYCAARWRYKYTLGYWGQGTQVTVSS,high polyreactivity
14,QVQLVESGGGLVQAGGILRLSCAASGFTFYRNAMGWYRQAPGKERELVAAISIRSGRTYYADSLKGRFTISRDNAKNSVYLQMNSLKPEDTAVYYCNKVRLPRDPYNYWGQGTQVTVSS,high polyreactivity
15,QVHLVESGGGLVQAGGSLRLSCAASGSILQRNAMGWYRQAPGKERELVASITFSAGRTYYADSVKGRFTISRDNAKNTVYLQMKSLKPEDTAVYYCAADPYSYGARGARGDYWGQGTQVSVSS,low polyreactivity
16,QVQLVESGGGLVQAGGSLRLSCAASGRIFRYYAMGWYRQAPGKERELVARITSGGSTYYADSVKGRFTLSRDNAKNTVYLQMNSLKPEDTAVYYCAAETTRWHPWYDYWGQGTQVTVSS,high polyreactivity
17,QVQLVESRGGLVQAGGSLPLSCAASGSIFSRNALGWYRQAPGKERELVAAITWSGGSTYYADSVKGRFTISRDNAKNTVYLQMNSLKAEDTAVYYCNAKRSSRIKQLEYDYWGKGTQVTVSS,high polyreactivity
18,QVQLVESGGGLVQAGGSLRLSCAASGSTFYSYAMGWYRQAPGKERELVAAISWDGGLTYYADSVKGRFTISRDTAKNTVYLQMNSLKPEDTAVYYCAAAYPTYRHYYWGQGTQVTVSS,low polyreactivity
19,QVQLVESGGGLVQAGGSLRLSCAASGYIFGFYAMGWYRQAPGKERELVSRITYSGTSTYYADSVKGRFTISRDNAKNTVYLQMNSLKPEDTAVYYCATDFVRHAGWRRYDYWGQGTQVTVSS,low polyreactivity
20,QVQLVESGGGLVQAGGSLRLSCAASAMAWYRQAPWKERELVATISATGGSTYYADSVKGRFTISRDNAKNTVYLQMNSLKPEDTAVYYCNKDPLVFVYWGQGTQVTVSS,low polyreactivity
21,QVQLVESGGGLVQAGGSLRLSFAPSGNSFGRYAMGWYRQAPGKERELVAAITRSGGTTYYADSVKGRFTLSRDNAKNTGYLQMNSLKPEDTAVYYCATDGDSTKLDYWGQGTQVTVSS,low polyreactivity
22,QVQLVESGGGLVQAGGSLRLSCAASGIFSRYAMGWYRQAPGKERELVAAISSGGSTYYADSVKGRFTISRDNAKNTVYLQMNSLKPEDTAVYYCAVKQRDKFAGGRNDYWGQGTQVTVSS,high polyreactivity

row,Sequence,polyreactivity (PSR sort gate)
1,QVQLVESGGGLVQAGGSLRLSCAASGRIFTAYAMGWYRQAPGKERELVASITTSGTTYYADSVKGRFTISRDNSKNTVYLQMNSLKPEDTAVYYCAADYYGYVQGGIQYGYYYLGQGTQVTVSS,low polyreactivity
2,QVQLVESGGGLVQAGGSLRLSCAASGSIYGPYAMGLYRQAPGKERELVAAISSGGSTYYADSVKGRFTISRDNAKNTVYLQMNSLKPEDTAVYYCNKYWGFSYLPYDSWGQGTQVTVSS,low polyreactivity
3,QVQLVESGGGLVQAGGSLRLSCAASGSTFNSYAMGWYRQAPGKESELVAAITSSGSRTRYADSVKGRFTISRDNAKNTVYLQMNSLKPEDTAVYYCAAVYRLKSGGVWRDSQFGYWGQGTQVTVSS,high polyreactivity
4,QVQLVESVVGLVQAGGSLRLSCAASVRTFVEYSMGWYRQAPGQERELVAAISSGGGSTYYADSVKGRFTISRDNAKNTVYLQMNSLKPEDTAVSYCATVGYRHRGWTSGYWGQGTQVTVSS,high polyreactivity
5,QVQLVESGGGLVQAGGSLRLSCAASGSTLPRYTMGWYRQAPGKERELVAAISFSGSSTYYADSVKGRFTISRVNAKNTVYLQMNSLKPEDTAVYYCRYGYNYWGQGTQVTVSS,high polyreactivity
6,QVQLVESGGGLVQAGGSLRLSCAASGRTFVVNAMGGYRQAPGKERELVAAITYSGDTTYYADSVKGRFTISRDNAKNTVYLQMNSLKPEDTAVYYCAADTGVVSPPAGLLIGPFDSWGQGTQVTVSS,low polyreactivity
7,QVHLVESGGGLVQAGGSLRLSCAASGSIFYYNTMGWYRQAPGKERELVAGISWGGGRTYYADSVKGRFTISRDNAKNTVYLQMNSLKPEDTAVYYCNARHRRLPSNGGYDYWGKGTQVTVSS,high polyreactivity
8,QVQLVESGGGLVQAGGSLRLSCAASGSTFGTYAMGWYRQAPGKERELVAAISRRGGSTYYADSVKGRFTISRDNAKNTVYLQMNSLKPEDTAVDYCAARNFHPDDNYWGQGTQVTVSS,high polyreactivity
9,QDQHVESVGGLVQAGGSLLLSCAASGFTLRGYALGWDRQAPGKERELVADISGGGSTDYADSVKGRFTISRDNAKNTVYLQMNSLKPLDTAVYYCAAYGYLWWEMDYWGQGTQVTLSS,high polyreactivity
10,QVQLVESGGGLVQAGGSLRLSCAASGRVYAMGWYRQAPGKERELVAPITTSGGRTYYADSVKGRFTISRDNAKNSVYCQMNSLKPEDTAVYYCNKPGYPPSDMYYWGQGTQVNVSS,low polyreactivity
11,QVQLVESGGGLVQAGGSLRLSCAASGITFDGYAMGWYRQAPGKERELVAAISNTGDTTYYADSVKGRFTISRDNAKNTVYLQMNSLKPEDTAVYYCAGQRYYSYEYWGQGTQVTVSS,high polyreactivity
12,QVQVVESGGGLVQAGGSLRLSCAASGRTSGNYAMGWYRQAPGKERELVAAIRYSGSSTFYADSVKGRFTISRDNAKHTVYLQMNSLKPEDTAVYYCARDIRRKGFRYDYWGQGTQVTVSS,high polyreactivity
13,QVQLVESGGGLVQAGGSLRISCAASGNIFDRYAMGWYRQAPGKEMELVAGITWSGGSTYYADSVKGRFTISRDNAKNTVYLQMNSLKPEDTAVYYCAKDPHGSDFGYWGQGTQVTVSS,low polyreactivity
14,QVQLVESGGGLVQAGGSLRLSCAASGFTFVRNTLGWYRQAPGKERELVATITFSGGSTYYADSVKGRFTISRDNAKNTVYLQMNTLKPEDTAVYYCAAEDWDDGYDYWGQGTQVTVSS,high polyreactivity
15,QVQLVESGGGLVQAGGSLRLSCAASGIIFSGYARGWSRQAPGKERELVAVISSSGGGTYYADSVKGRFTISRDNAKNTVYLHMNSLKPEDTAVYYCAARGREAIHGYWGQGTQVTVSS,high polyreactivity
16,QVQLVESGGGLVQAGGSLRLSCAASGSTFYVYAMGVYRQAPGKERELVAAIRGGGSTNYADSVKGRFTISRDNAKNTVYLQMNSLKPEDTAVYYCAARYRSLRYRPSGYSYNYWGQGTQVTVSS,high polyreactivity
17,QVQLVESGGGLLQAGGSLRLSCAASGITFRRNTMGWYREAPGKVRELVATISWRGGNTFYADSVKGRCTISRDNAKNTVYLQMNSRKPEDTAVYYCAAYSPYITRPGYAPYGYWGQATQVTVSS,high polyreactivity
18,QVQLVESGGGLVQAGGSLRLSCAASGRTFASYAMGWYRQAPGKERELVAVITRGGRTYYADSVKGRFTISRDNAKNTVYLQMNSLKPEDTAVYYCNAAYYSSSYLEDSWGQGTQVTVSS,high polyreactivity
19,QVQLVESGGGLVQAGGSLRLSCAASGRIFAYNAMGWYRQAPGKERELVAAITWSGGITYYADSVKGRFTISRDNAKNTVYLQMNSLKPEDTAVYYCNVYVSAGEEDEYWGQGTQVTVSS,low polyreactivity
20,QVQLVESGGGLVHAGGSLRLSCAASGTIFYRNAMGWYRQAPGKERELVAAITSRGGRTYYADSVKGRFTISRDNAKNTVYLQMNSLKPEDTAVYDCNKRYVYSTSDYDYWGQGTQVTVSS,high polyreactivity
21,QVQLVESGGGLVQAGGSLRLSCAACGRIFDRNAMGWYRQAPGKERELVAAITRSGGRTYYADSVKGRFTISRDNAKNSVYLQMNSLKPEDTAVYYCNRGYPRSVVHYNSWGQGTQVTVSS,low polyreactivity
